The values below come from US20230080534A1 (SHANGHAI BIOTROY BIOTECHNIQUE, published 2023).

For orientation: EC50 means the concentration giving half of the maximal effect. High values mean a less potent agent, low ones a more potent agent. A word on the Kd: it is the free concentration of one partner at which half of the binding sites on the other are occupied at equilibrium, for simple one-to-one binding.

In test [1] the target is T1, human CD27 (HA-tagged, expressed in HEK293 cells) (human, UniProt P26842 20-260, limits assumed).
T1 construct: Plasmid printed as 'pcDNA3-HA-CD2'; not shown: HA tag
T1 sequence (looked up): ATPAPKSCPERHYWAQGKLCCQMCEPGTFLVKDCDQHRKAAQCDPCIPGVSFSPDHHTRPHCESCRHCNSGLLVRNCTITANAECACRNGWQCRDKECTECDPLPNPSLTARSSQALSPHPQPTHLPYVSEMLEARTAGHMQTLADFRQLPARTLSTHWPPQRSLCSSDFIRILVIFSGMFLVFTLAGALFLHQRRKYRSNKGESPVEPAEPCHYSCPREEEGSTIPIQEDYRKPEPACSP
Nature of the test: co-immunoprecipitation, HEK293 co-transfection. How it is done:
In co-immunoprecipitation experiment, cells were lysed in IP buffer (Thermo Scientific) and Roche complete protease inhibitor for 10 minutes, followed by the addition of benzonase (sigma) for 25 minutes at room temperature. The lysate was then centrifuged at 15,000 rpm at 4° C. to remove the precipitate. The supernatant was then incubated with primary antibody slowly rotated overnight at 4° C., followed by the addition of protein A or protein G dynabeads and incubated at 4° C. for 2 hours, washed for 4 times in PBST (PBS with 0.01% Tween 20), eluted with 50 mM DTT in SDS sample buffer for 10 minutes at 100° C., separated with SDS, and immunoblotted as previously described.
To further confirm which part of SEMG-2 binds to CD27, fragments of SEMG2 protein were designed. The amino acid sequence of full-length SEMG2 protein (SEQ ID NO:1) was divided into 6 segments of sequences, fused with GFP and named as SEMG2-P1, SEMG2-P2, SEMG2-P3, SEMG2-P4, SEMG2-P5 and SEMG2-P6 (See Table 1 for specific sequences, with corresponding abbreviation as P1-P6 respectively). Plasmids expressing these amino acid sequences were co-transfected with CD27 into HEK293 cells, and co-immunoprecipitation experiments were performed to identify the main fragment of SEMG2 that binds to CD27.

Test [2] has as its target T2, BSA-conjugated human SEMG2 (497-509) polypeptide (human, also: coupled to BSA, site not given here).
T2 peptide: QIEKLVEGKSQIQ
The test is described as follows: ELISA on BSA-S2 (497-509); curve without upper plateau; the EC50 table prints no unit, the axis is log (antibody concentration, nM). Background: In an ELISA, binding on a coated surface is turned into a signal by an enzyme label.

Test [3] has as its target T3, human SEMG2 full-length protein (human, UniProt Q02383 24-582, limits assumed).
T3 construct: also called SEMG2 protein; semenogelin 2
T3 sequence: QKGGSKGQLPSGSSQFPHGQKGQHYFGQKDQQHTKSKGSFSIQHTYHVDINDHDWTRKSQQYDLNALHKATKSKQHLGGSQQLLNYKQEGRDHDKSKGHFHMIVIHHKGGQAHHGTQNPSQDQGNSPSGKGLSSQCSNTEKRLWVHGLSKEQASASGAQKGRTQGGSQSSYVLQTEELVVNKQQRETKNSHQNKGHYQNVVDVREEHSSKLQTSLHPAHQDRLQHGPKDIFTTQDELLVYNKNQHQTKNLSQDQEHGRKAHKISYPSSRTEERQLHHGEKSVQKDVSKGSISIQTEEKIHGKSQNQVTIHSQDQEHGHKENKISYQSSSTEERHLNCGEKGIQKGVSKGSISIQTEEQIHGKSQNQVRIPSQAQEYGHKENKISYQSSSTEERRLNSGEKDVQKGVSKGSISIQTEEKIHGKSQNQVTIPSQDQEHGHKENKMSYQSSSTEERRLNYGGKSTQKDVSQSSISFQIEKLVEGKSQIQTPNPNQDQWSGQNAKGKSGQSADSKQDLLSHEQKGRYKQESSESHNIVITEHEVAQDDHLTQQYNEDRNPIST
The test is described as follows: biolayer interferometry (ForteBio Blitz or Gator). The protocol: The equilibrium dissociation constant (KD) of the antibody of the present invention binding to human SEMG2 was determined by biolayer interferometry (ForteBio Bltz or Gator instrument). […] 100 μl of SD buffer, antibody and SEMG2 were added to a 96-well black polystyrene half area microplate, respectively. Select the sensor location based on the sample location layout. KD values were analyzed using molecular interaction analysis software. In the experiments of the assays, the affinity constants of murine monoclonal antibodies and human antibodies H88-67, H88-93 and H88-96 are shown in Table 8, and the affinity and dissociation curves of SEMG2 and corresponding proteins are shown in FIG. 25.

The target in test [4] is T3, human SEMG2 full-length protein. The test is described as follows: ELISA on SEMG2; the EC50 table prints no unit, the axis is log (antibody concentration, nM).
For test [5] the target is unchanged. The test is described as above. The source holds these as a separate data set.
The target is the same in test [6]. The test is described as above. The source holds these as a separate data set.
Test [7] shares this target. Nature of the test: ELISA (FIG. 21B-D).
In test [8] the target is T2, BSA-conjugated human SEMG2 (497-509) …. Nature of the test: ELISA (FIG. 21B-D).
The target in test [9] is T3, human SEMG2 full-length protein. The test is described as follows: ELISA on SEMG2 protein; the EC50 table prints no unit, the axis is log (antibody concentration, nM).

Where a chain is given by its changes, count along the chain named. No end group written: not given here. Bounds are passed on as bounds.

Consider EQKGRYKQESSESHNIVITEHEVAQDDHLTQQYNEDRNPIST (other, also: fused to GFP, variant, linker and side of fusion not given here, not shown: GFP fusion partner) [SEMG2-P6 fused with GFP], for which the binding result in test [1] was “no binding”.

B1: SEMG2-P3 fused with GFP (other)
chain: KAHKISYPSSRTEERQLHHGEKSVQKDVSKGSISIQTEEKIHGKSQNQVTIHSQDQEHGHKENKISYQSSSTEERHLNCGEKGIQKGVSKGSISIQTEEQIHGKSQNQVRIPSQAQ
notes: not shown: GFP fusion partner
B1: the binding result in test [1] is reported as “no binding”.

B2: H88-67 (antibody, V domains shown)
VH: QVQLLESGGGVVQPGRSLRLSCAASGFTFSSYAMHWVRQAPGKGLEWVAVISYDGSNKYYADSVKGRFTISRDNSKNTLYLQMNSLRAEDTAVYYCARMDGSGSPDYWGQGTLVTVSS
VL: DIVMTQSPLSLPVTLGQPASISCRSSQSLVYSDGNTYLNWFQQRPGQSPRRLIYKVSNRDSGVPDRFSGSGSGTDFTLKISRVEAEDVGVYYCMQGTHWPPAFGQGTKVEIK
notes: Fully human full-length antibody built from a phage Fab
For B2, the EC50 in test [2] came to 57.5 nM; in test [4] it was 2.13 nM; in test [5] it was 0.863 nM. In addition, the equilibrium dissociation constant (Kd) in test [3] was found to be 28.4 nM.

B3: SEMG2-P4 fused with GFP (other)
chain: EYGHKENKISYQSSSTEERRLNSGEKDVQKGVSKGSISIQTEEKIHGKSQNQVTIPSQDQEHGHKENKMSYQSSSTEERRLNYGGKSTQKDVSQSSIS
notes: not shown: GFP fusion partner
As for B3, the binding result in test [1] is given as “no binding”.

B4: SEMG2-P2 fused with GFP (other)
chain: QNPSQDQGNSPSGKGLSSQCSNTEKRLWVHGLSKEQASASGAQKGRTQGGSQSSYVLQTEELVVNKQQRETKNSHQNKGHYQNVVDVREEHSSKLQTSLHPAHQDRLQHGPKDIFTTQDELLVYNKNQHQTKNLSQDQEHGR
notes: not shown: GFP fusion partner
Turning to B4, in test [1], the binding result is “no binding”.

B5: SEMG2-P1 fused with GFP (other)
chain: GSFSIQHTYHVDINDHDWTRKSQQYDLNALHKATKSKQHLGGSQQLLNYKQEGRDHDKSKGHFHMIVIHHKGGQAHHGT
notes: not shown: GFP fusion partner
Consider B5, for which the binding result in [1] was “no binding”.

B6: 96-10V-10 (antibody, V domains shown)
VH: QVQLLESGGGLVQPGGSLRLSCSASGFTFSSYAMHWVRQAPGKGLEYVSAISSNGGSTYYADSVKGRFTISRDNSKNTLYLQMSSLRAEDTAVYYCVIEGGSTGSTVSGAFDIWGQGTMVTVSS
VL: DIQMIQSPPSVSASVGDTVTIACRANQGIDSWLAWYQQKPGRAPKLLIYSASRLQSGVPSRFSGGGSGTDFALTISNLQPEDFATYYCQQALSLPITFGQGTRLEIK
As to B6, the half-maximal effective concentration (EC50) in test [2] worked out at 32.2 nM; in [6], 0.358 nM. Also, the “fold higher affinity than the parent antibody (H88-96)” value in [7] and in [8] was above 10 fold throughout.

B7: H88-96 (antibody, V domains shown)
VH: B6 VH with G104T, S105G, V107T
VL: B6 VL
notes: as for B2
B7: the EC50 came out at 95.7 nM in test [2], 14 nM in [6] and 9.3 nM in test [5]. Also, in [3], binding was put at a Kd of 14 nM.

B8: MM05V4V2 (antibody, V domains shown)
VH: QVQLVQSGAEVKKPGASVKVSCKASGYTFTSYWMNWVRQAPGQGLEWVGMIDPSDSETHYAQKFQGRVTITADKSTSTVYMELSSLRSEDTAVYYCARYLGGKEGSFDYWGQGTLVTVSS
VL: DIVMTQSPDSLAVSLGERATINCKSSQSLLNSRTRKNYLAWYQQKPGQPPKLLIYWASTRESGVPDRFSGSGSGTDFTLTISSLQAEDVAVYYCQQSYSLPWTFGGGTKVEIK
notes: humanized MM05 antibody, one member of the group m49
In [9], B8 came in with an EC50 of 0.18 nM.

B9: MM05V3V2 (antibody, V domains shown)
VH: B8 VH with A72V
VL: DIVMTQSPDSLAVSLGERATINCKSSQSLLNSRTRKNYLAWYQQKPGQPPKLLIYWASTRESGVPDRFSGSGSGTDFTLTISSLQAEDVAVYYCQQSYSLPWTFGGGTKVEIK
notes: as for B8
Molecule B9 yielded a half-maximal effective concentration (EC50) in [9] of 0.092 nM.

B10: MM05V4V1 (antibody, V domains shown)
VH: B8 VH
VL: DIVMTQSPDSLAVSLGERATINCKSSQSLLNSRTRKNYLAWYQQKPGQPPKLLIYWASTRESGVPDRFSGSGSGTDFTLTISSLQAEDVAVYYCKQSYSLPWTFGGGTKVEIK
notes: as for B8
Consider B10, for which the concentration giving a half-maximal response (EC50) in [9] was found to be 0.123 nM.
